These results are taken from paper PMC11441981.

Holding throughout (test): GST pull-down from S2 cell lysate with mass spectrometry (volcano plot of spectral intensities)
Assay [1] addresses γCOP. Particulars: three biological replicates, read off a plot.
The target in assay [2] is Ostγ. Particulars: three biological replicates, read off a plot.
For assay [3], the target named is CG33303. Particulars: three biological replicates, read off a plot.
Assay [4] has as its target εCOP. Particulars: three biological replicates, read off a plot.
The target in assay [5] is Arf79F. Particulars: three biological replicates, read off a plot.
In assay [6] the target is Ostδ. Particulars: three biological replicates, read off a plot.
Assay [7] deals with T1, Prat, Q27601.
T1 chain: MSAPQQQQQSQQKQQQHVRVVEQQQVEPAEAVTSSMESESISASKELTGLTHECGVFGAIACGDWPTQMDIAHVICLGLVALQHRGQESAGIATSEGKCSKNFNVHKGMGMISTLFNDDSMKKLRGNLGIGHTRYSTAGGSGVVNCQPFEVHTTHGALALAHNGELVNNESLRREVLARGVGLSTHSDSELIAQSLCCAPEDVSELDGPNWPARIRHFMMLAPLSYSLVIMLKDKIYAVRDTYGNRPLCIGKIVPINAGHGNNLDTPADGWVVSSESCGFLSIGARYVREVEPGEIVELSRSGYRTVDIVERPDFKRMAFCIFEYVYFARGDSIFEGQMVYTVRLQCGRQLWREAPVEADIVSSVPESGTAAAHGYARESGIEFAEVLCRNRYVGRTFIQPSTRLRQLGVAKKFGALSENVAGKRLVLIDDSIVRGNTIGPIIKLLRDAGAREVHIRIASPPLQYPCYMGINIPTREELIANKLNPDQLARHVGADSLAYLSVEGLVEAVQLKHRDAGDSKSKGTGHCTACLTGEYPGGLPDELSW
Particulars: chain shown with the change, three biological replicates, read off a plot.

Regarding “GST-tagged CG9590 (Drosophila FAM114A) (from UniProt Q9VF39) W24A; W27A”, the other: Difference Log2(CG9590-GST, Wild-type vs W24,27A mutant) in assay [1] turned out to be 6.3 log2; in assay [2], 1.1 log2; in assay [3] it was 2.5 log2; in assay [4], 5.5 log2; in assay [5], 1.4 log2; in assay [6], 1.7 log2.

B1: GST-tagged CG9590 (Drosophila FAM114A), Q9VF39 W24A; W27A (protein)
chain: MAKNPKKEEDGGNDWAQSDEDDNADDAGDDDDKFVHVEKEQQPQEKVSSRNDAKGTAENQEKLETPRISAPATASATSSSWGLWGGKLSSVLTTATEGLGTITTQVNQGLNQIIGVPDPEELARINVAEKAEKAAKAPPEENVDDEKESSAAFGLDFVTNLGSKVLNTGLDTLEGIGKKTMTILQDNDPKLMNKRKLLGLEANSPNLSAVLLEAKKEADQMEQSLQQLQLKRQKAQLRFEILFENYCGLVHFEALEILSKESRLKLDTLLDAVSGNARAELQETINEVKELIELEDLDVESEGDYEAEELSERLAATIKDAELGIQFDDIANHWTQSLSWLTSEEATAADLEQAYAKSIHALSEACALEMCKLHKIAELLLVKPHHSTANEVDGVVNLCQQFNGHLQGLSHRFAAVLSGKSETEESKGRVSTFFSEMLSAVQFIEKAYKLFTPILQMGAV
The molecule B1 displayed an other: Difference Log2(CG9590-GST, Wild-type vs W24,27A mutant) in assay [7] of 9.8 log2.
